Reference: paper PMC8855348

T1: RAD51AP1 WT (UniProt Q96B01 1-352)
T1 sequence: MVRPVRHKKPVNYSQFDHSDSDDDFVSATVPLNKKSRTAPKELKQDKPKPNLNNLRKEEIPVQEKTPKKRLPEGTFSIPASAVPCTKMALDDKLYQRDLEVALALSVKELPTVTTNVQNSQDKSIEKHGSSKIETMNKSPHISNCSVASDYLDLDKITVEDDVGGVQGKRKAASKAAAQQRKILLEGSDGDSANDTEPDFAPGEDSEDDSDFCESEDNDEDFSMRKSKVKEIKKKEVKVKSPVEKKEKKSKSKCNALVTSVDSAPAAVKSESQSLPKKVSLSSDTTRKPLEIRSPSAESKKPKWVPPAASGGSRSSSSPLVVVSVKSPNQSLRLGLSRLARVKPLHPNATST


Target: T1, RAD51AP1 WT
Test: EMSA

Binder | binding result
63-nt ssRNA (ssRNA) RNA: AACUUGGUCUGACAGUUACCAAUGCUUAAUCAGUGAGGCACCUAUCUCAGCGAUCUGUCUAUU | binds
50-nt DNA-RNA hybrid (DNA:RNA) DNA: ATCATCACCATAACGTCGATGTATCAACTTCGATTAGTCACACCAATTAA RNA: UUAAUUGGUGUGACUAAUCGAAGUUGAUACAUCGACGUUAUGGUGAUGAU | binds
